Results published in patent publication US20190177366A1 (published 2019).
“And” between values parts separate entries of the source, which are not always exact repeats. Identical values can stand only once. Bridge positions count the residues as written; N and C are the ends. * marks the point of attachment. Fmoc = O=C(OCC1c2ccccc2-c2ccccc21)*

B1: Compound 98 (peptide)
peptide: Fmoc-GSGCWNLKRIGSQGC-NH2
modifications: disulfide 4-15
SMILES: CC[C@H](C)[C@@H]1NC(=O)[C@H](CCCNC(=N)N)NC(=O)[C@H](CCCCN)NC(=O)[C@H](CC(C)C)NC(=O)[C@H](CC(N)=O)NC(=O)[C@H](Cc2c[nH]c3ccccc23)NC(=O)[C@@H](NC(=O)CNC(=O)[C@H](CO)NC(=O)CNC(=O)OCC2c3ccccc3-c3ccccc32)CSSC[C@@H](C(N)=O)NC(=O)CNC(=O)[C@H](CCC(N)=O)NC(=O)[C@H](CO)NC(=O)CNC1=O
B2: Compound 22 (peptide)
peptide: Ac-GSGCWNLKRIGSQGC-NH2
modifications: disulfide 4-15 (inferred)
B3: Compound 21 (peptide)
peptide: Ac-CWNLKRIGSQGC-NH2
modifications: disulfide 1-12 (inferred)
B4: Compound 90 (peptide)
peptide: Ac-WCLWNLKRIGSQCWF-OH
modifications: disulfide 2-13
SMILES: CC[C@H](C)[C@@H]1NC(=O)[C@H](CCCNC(=N)N)NC(=O)[C@H](CCCCN)NC(=O)[C@H](CC(C)C)NC(=O)[C@H](CC(N)=O)NC(=O)[C@H](Cc2c[nH]c3ccccc23)NC(=O)[C@H](CC(C)C)NC(=O)[C@@H](NC(=O)[C@H](Cc2c[nH]c3ccccc23)NC(C)=O)CSSC[C@@H](C(=O)N[C@@H](Cc2c[nH]c3ccccc23)C(=O)N[C@@H](Cc2ccccc2)C(=O)O)NC(=O)[C@H](CCC(N)=O)NC(=O)[C@H](CO)NC(=O)CNC1=O
B5: Compound 40 (peptide)
peptide: Ac-GSGCWNLKRIGSQGCW-NH2
modifications: disulfide 4-15 (inferred)
B6: Compound 66 (peptide)
peptide: H-WCLWNLKRIGSQCWF-OH
modifications: disulfide 2-13
SMILES: CC[C@H](C)[C@@H]1NC(=O)[C@H](CCCNC(=N)N)NC(=O)[C@H](CCCCN)NC(=O)[C@H](CC(C)C)NC(=O)[C@H](CC(N)=O)NC(=O)[C@H](Cc2c[nH]c3ccccc23)NC(=O)[C@H](CC(C)C)NC(=O)[C@@H](NC(=O)[C@@H](N)Cc2c[nH]c3ccccc23)CSSC[C@@H](C(=O)N[C@@H](Cc2c[nH]c3ccccc23)C(=O)N[C@@H](Cc2ccccc2)C(=O)O)NC(=O)[C@H](CCC(N)=O)NC(=O)[C@H](CO)NC(=O)CNC1=O
B7: Compound 39 (peptide)
peptide: Ac-CWNLKRIGSQGCW-NH2
modifications: disulfide 1-12 (inferred)
B8: Compound 63 (peptide)
peptide: Ac-MCLWNLKRIGSQCEY-NH2
modifications: disulfide 2-13
SMILES: CC[C@H](C)[C@@H]1NC(=O)[C@H](CCCNC(=N)N)NC(=O)[C@H](CCCCN)NC(=O)[C@H](CC(C)C)NC(=O)[C@H](CC(N)=O)NC(=O)[C@H](Cc2c[nH]c3ccccc23)NC(=O)[C@H](CC(C)C)NC(=O)[C@@H](NC(=O)[C@H](CCSC)NC(C)=O)CSSC[C@@H](C(=O)N[C@@H](CCC(=O)O)C(=O)N[C@@H](Cc2ccc(O)cc2)C(N)=O)NC(=O)[C@H](CCC(N)=O)NC(=O)[C@H](CO)NC(=O)CNC1=O
B9: Compound 65 (peptide)
peptide: Ac-WCLWNLKRIGSQCEY-NH2
modifications: disulfide 2-13
SMILES: CC[C@H](C)[C@@H]1NC(=O)[C@H](CCCNC(=N)N)NC(=O)[C@H](CCCCN)NC(=O)[C@H](CC(C)C)NC(=O)[C@H](CC(N)=O)NC(=O)[C@H](Cc2c[nH]c3ccccc23)NC(=O)[C@H](CC(C)C)NC(=O)[C@@H](NC(=O)[C@H](Cc2c[nH]c3ccccc23)NC(C)=O)CSSC[C@@H](C(=O)N[C@@H](CCC(=O)O)C(=O)N[C@@H](Cc2ccc(O)cc2)C(N)=O)NC(=O)[C@H](CCC(N)=O)NC(=O)[C@H](CO)NC(=O)CNC1=O
B10: Compound 64 (peptide)
peptide: Ac-DCLWNLKRIGSQCEY-NH2
modifications: disulfide 2-13
SMILES: CC[C@H](C)[C@@H]1NC(=O)[C@H](CCCNC(=N)N)NC(=O)[C@H](CCCCN)NC(=O)[C@H](CC(C)C)NC(=O)[C@H](CC(N)=O)NC(=O)[C@H](Cc2c[nH]c3ccccc23)NC(=O)[C@H](CC(C)C)NC(=O)[C@@H](NC(=O)[C@H](CC(=O)O)NC(C)=O)CSSC[C@@H](C(=O)N[C@@H](CCC(=O)O)C(=O)N[C@@H](Cc2ccc(O)cc2)C(N)=O)NC(=O)[C@H](CCC(N)=O)NC(=O)[C@H](CO)NC(=O)CNC1=O
B11: Compound 95 (peptide)
peptide: Ac-FCLWNLKRIGSQCEY-NH2
modifications: disulfide 2-13
SMILES: CC[C@H](C)[C@@H]1NC(=O)[C@H](CCCNC(=N)N)NC(=O)[C@H](CCCCN)NC(=O)[C@H](CC(C)C)NC(=O)[C@H](CC(N)=O)NC(=O)[C@H](Cc2c[nH]c3ccccc23)NC(=O)[C@H](CC(C)C)NC(=O)[C@@H](NC(=O)[C@H](Cc2ccccc2)NC(C)=O)CSSC[C@@H](C(=O)N[C@@H](CCC(=O)O)C(=O)N[C@@H](Cc2ccc(O)cc2)C(N)=O)NC(=O)[C@H](CCC(N)=O)NC(=O)[C@H](CO)NC(=O)CNC1=O
B12: Compound 88 (peptide)
peptide: Ac-FCLWNLARIGSQCWF-NH2
modifications: disulfide 2-13
SMILES: CC[C@H](C)[C@@H]1NC(=O)[C@H](CCCNC(=N)N)NC(=O)[C@H](C)NC(=O)[C@H](CC(C)C)NC(=O)[C@H](CC(N)=O)NC(=O)[C@H](Cc2c[nH]c3ccccc23)NC(=O)[C@H](CC(C)C)NC(=O)[C@@H](NC(=O)[C@H](Cc2ccccc2)NC(C)=O)CSSC[C@@H](C(=O)N[C@@H](Cc2c[nH]c3ccccc23)C(=O)N[C@@H](Cc2ccccc2)C(N)=O)NC(=O)[C@H](CCC(N)=O)NC(=O)[C@H](CO)NC(=O)CNC1=O
B13: Compound 89 (peptide)
peptide: H-WCLWNLKRIGSQCWF-NH2
modifications: disulfide 2-13
SMILES: CC[C@H](C)[C@@H]1NC(=O)[C@H](CCCNC(=N)N)NC(=O)[C@H](CCCCN)NC(=O)[C@H](CC(C)C)NC(=O)[C@H](CC(N)=O)NC(=O)[C@H](Cc2c[nH]c3ccccc23)NC(=O)[C@H](CC(C)C)NC(=O)[C@@H](NC(=O)[C@@H](N)Cc2c[nH]c3ccccc23)CSSC[C@@H](C(=O)N[C@@H](Cc2c[nH]c3ccccc23)C(=O)N[C@@H](Cc2ccccc2)C(N)=O)NC(=O)[C@H](CCC(N)=O)NC(=O)[C@H](CO)NC(=O)CNC1=O
B14: Compound 87 (peptide)
peptide: Ac-GCLWNLKRIGSQCWF-NH2
modifications: disulfide 2-13
SMILES: CC[C@H](C)[C@@H]1NC(=O)[C@H](CCCNC(=N)N)NC(=O)[C@H](CCCCN)NC(=O)[C@H](CC(C)C)NC(=O)[C@H](CC(N)=O)NC(=O)[C@H](Cc2c[nH]c3ccccc23)NC(=O)[C@H](CC(C)C)NC(=O)[C@@H](NC(=O)CNC(C)=O)CSSC[C@@H](C(=O)N[C@@H](Cc2c[nH]c3ccccc23)C(=O)N[C@@H](Cc2ccccc2)C(N)=O)NC(=O)[C@H](CCC(N)=O)NC(=O)[C@H](CO)NC(=O)CNC1=O

These binders were tested against T1, His-tagged, full-length PCSK9 (human, UniProt A8T644 31-152; Q8NBP7 153-692) (assay: TR-FRET competition; competitor EGF(A)-Fc on His-PCSK9).
T1 construct: Target protein of the PCSK9/EGF(A) TR-FRET assay (10 nM); also called His-PCSK9; proprotein convertase subtilisin/kexin type 9
T1 sequence (A8T644 31-152 limits assumed, chain 1 of 2): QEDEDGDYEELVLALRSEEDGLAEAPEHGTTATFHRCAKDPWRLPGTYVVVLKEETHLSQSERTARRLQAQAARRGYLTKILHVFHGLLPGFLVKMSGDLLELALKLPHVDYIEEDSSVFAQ
T1 sequence (A8T644 other isoform, or with tags, fused parts or gaps limits assumed, chain 2 of 2): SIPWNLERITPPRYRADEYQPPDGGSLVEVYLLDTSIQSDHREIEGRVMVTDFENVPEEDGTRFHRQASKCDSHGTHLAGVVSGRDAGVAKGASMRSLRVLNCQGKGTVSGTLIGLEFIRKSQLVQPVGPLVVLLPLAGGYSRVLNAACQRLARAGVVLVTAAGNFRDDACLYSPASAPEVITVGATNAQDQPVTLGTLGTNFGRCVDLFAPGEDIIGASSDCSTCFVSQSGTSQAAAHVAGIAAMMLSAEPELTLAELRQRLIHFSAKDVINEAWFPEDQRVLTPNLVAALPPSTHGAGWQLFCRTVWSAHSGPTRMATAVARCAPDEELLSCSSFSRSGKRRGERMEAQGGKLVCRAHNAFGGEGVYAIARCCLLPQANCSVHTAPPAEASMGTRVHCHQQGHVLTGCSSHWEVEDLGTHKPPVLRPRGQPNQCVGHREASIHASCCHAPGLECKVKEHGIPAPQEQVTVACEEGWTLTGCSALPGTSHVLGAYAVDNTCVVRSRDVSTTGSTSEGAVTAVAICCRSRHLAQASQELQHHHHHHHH

Row | Binder | IC50
1 | B1 | 37.6 µM
2 | B2 | 42 µM and > 50 µM
3 | B3 | > 50 µM
4 | B4 | 29.2 µM
5 | B5 | 5.96 µM
6 | B6 | 31.3 µM
7 | B7 | > 50 µM
8 | B8 | 14.6 µM
9 | B9 | > 50 µM
10 | B10 | > 50 µM
11 | B11 | > 50 µM
12 | B12 | 17.9 µM
13 | B13 | 6.9 µM
14 | B14 | > 50 µM
